Columns and labels:
[1] = test system: hNav 1.6; assay: Patch-clamp macroscopic sodium currents, hNav1.6 in HEK cells; type: cell-based, human; settings: 200 nM toxin; for A: fraction of channels bound to the toxin: activation; for A: fraction of channels bound to the toxin / slope of activation after toxin / V0.5 of activation after toxin: sum of two Boltzmann fit; for A: fraction of channels bound to the toxin / I/Imax (residual peak current) / slope of inactivation after toxin / V0.5 of inactivation after toxin / slope of activation after toxin / V0.5 of activation after toxin: mean ± SE of 5 cells (3–5 cells); for I/Imax (residual peak current): both values marked * (p<0.05 paired t-test); for slope of inactivation after toxin / V0.5 of inactivation after toxin: steady-state inactivation; for slope of inactivation after toxin: control 6.6 ± 0.3 (Chirp7 cells), 6.3 ± 0.1 (Chirp9 cells); for V0.5 of inactivation after toxin: control -55.8 ± 0.3 (Chirp7 cells), -65.0 ± 0.1 (Chirp9 cells); for slope of activation after toxin: control 5.6 ± 0.22 (Chirp7 cells), 7.0 ± 0.4 (Chirp9 cells); for slope of activation after toxin / V0.5 of activation after toxin: both toxin values marked * (p<0.05); for V0.5 of activation after toxin: toxin-bound component, control -22.8 ± 0.3 (Chirp7 cells), -22.5 ± 0.3 (Chirp9 cells)
Description: (§1) Recordings of macroscopic currents from sodium channels. Human voltage-gated sodium channels (hNav 1.1, hNav 1.2 and hNa 1.6) were stably expressed in HEK cells. Cells were maintained at 37 ◦C with 5% CO2 in a humidified atmosphere. The growth medium consisted of high-glucose Dulbecco’s Modified Eagle Medium (DMEM, Sigma Aldrich, Naucalpan de Juarez, Estado de Mexico, Mexico), supplemented with 10% Fetal Bovine Serum (ByProductos, Guadalajara, Jalisco, Mexico) and 500 μg/mL of the antibiotic G418 (Sigma Aldrich, Naucalpan de Juarez, Estado de Mexico, Mexico). The extracellular solution was composed of (in mM): 130 NaCl, 5 KCl, 2 CaCl2, 2 MgCl2, 10 HEPES, and 5 glucose, with the pH adjusted to 7.3 using NaOH. The intracellular solution contained (in mM): 105 CsF, 27 CsCl, 5 NaCl, 2 MgCl2, 10 EGTA, and 10 HEPES, with the pH also adjusted to 7.3 with CsOH. Solutions were delivered to the patched cell via an active perfusion system connected to a variable-speed syringe pump (Model A-99, Razel Scientific Instruments, Fairfax, VT, USA), with a perfusion rate of approximately 1 μL/s. Patch pipettes were made from borosilicate glass capillaries (Warner Instruments, Hamden, CT, USA) using a vertical puller (Model P-30, Sutter Instrument, Novato, CA, USA). The pipettes were filled with the internal solution and had resistance ranging from 1.5 and 3 MΩ. Sodium currents were elicited by 100 ms depolarization ranging from −110 to 30 mV in 10 mV steps, followed by a fully activating step at −10 mV for 50 ms. To better appreciate the effects of scorpion β-sodium toxins, channels were primed by means of a 5 ms depolarization at 50 mV, applied 50 ms before the depolarization steps, as previously described in Cestele et al. 1998 [17]. To ensure complete recovery from inactivation, cells were maintained at −120 mV for 280 ms before each step, while holding potential was set at −100 mV. Currents were acquired using a MultiClamp 700A amplifier and a DigiData 1440A digitizer (Molecular Devices, CA, USA).
(§2) For the activation curve, conductance (G) was calculated from current (I) elicited during depolarization steps by means of the equation G = I/(Vm − ENa), where I is the current elicited at membrane potential Vm, and ENa is the reversal potential of Na^+ ions, calculated experimentally for each cell. Conductance was normalized to its maximal level and plotted against the corresponding membrane potential. For the steady-state inactivation curve, currents elicited at −10 mV (after preconditioning depolarization from −110 to 30 mV) were plotted against the preconditioning potentials. Data from activation and from steady-state inactivation were fitted using a Boltzmann equation: y = A2 + (A1 − A2)/(1 + exp((x − x0)/dx)) where A1 is the initial value, A2 is the final value, x0 is the potential of half-activation (or half-inactivation) and dx is the slope.
For hNav 1.6 currents, activation data after toxin exposure were fitted using the sum of two Boltzmann equations: y = y0 + A (frac/(1 + exp((x − x01)/k1)) + (1 − frac)/(1 + exp((x − x02)/k2))) where the sum is 1, x01 and dx1 are the same as under control conditions, and “frac” represents the fraction of channels bound to the toxin. Data are presented as means ± standard error (SE). The paired sample t-test (also known as the dependent samples t-test) was applied by comparing, for each individual cell recorded, the electrophysiological parameter of interest (e.g., peak current, V½ of activation or inactivation) before toxin application and after toxin application. Significant difference was accepted with a confidence level “p” set at 0.05. […]
Figure S1. Recordings of macroscopic currents from sodium channels. Sodium currents in B) were
elicited by the stimulation protocol depicted in A): currents were elicited by 100 ms depolarization
ranging from -110 to 30 mV in 10 mV steps, followed by a fully activating step at -10 mV for 50 ms. […]

[2] = test system: hNav 1.2; assay: Patch-clamp macroscopic sodium currents, hNav1.2 in HEK cells; type: cell-based, human; settings: 200 nM toxin; for I/Imax (residual peak current) / slope of activation after toxin / V0.5 of activation after toxin / slope of inactivation after toxin / V0.5 of inactivation after toxin: mean ± SE of 5 cells (3–5 cells); for slope of activation after toxin: control 5.4± 0.3 (Chirp7 cells), 7.6 ± 0.4 (Chirp9 cells); for slope of activation after toxin / slope of inactivation after toxin / V0.5 of inactivation after toxin: Chirp9 value marked * (p<0.05); for V0.5 of activation after toxin: control -21.1 ± 0.4 (Chirp7 cells), -26.5 ± 0.5 (Chirp9 cells); for slope of inactivation after toxin / V0.5 of inactivation after toxin: steady-state inactivation; for slope of inactivation after toxin: control 6 ± 0.2 (Chirp7 cells), 5.6 ± 0.2 (Chirp9 cells); for V0.5 of inactivation after toxin: control -56.1 ± 0.2 (Chirp7 cells), -55.5 ± 0.3 (Chirp9 cells)
Description: as §1
as §2, with “slope. […]” for “slope.”
Figure S1. Recordings of macroscopic currents from sodium channels. Sodium currents in B) were elicited by the stimulation protocol depicted in A): currents were elicited by 100 ms depolarization ranging from -110 to 30 mV in 10 mV steps, followed by a fully activating step at -10 mV for 50 ms.
A 5 ms depolarization at 50 mV was applied 50 ms before the depolarization steps to primed the channels. Peak currents obtained during the step depolarization from -110 to 30 mV (C and D, black circle in control and open circle after toxin application) were used to calculate the conductance and construct the activation curves. Currents recorded during the step at -10 mV (C and D, black square in control and open square for the toxin), were used to construct the inactivation curves. […]

[3] = test system: antibody; assay: Antibody recognition of Chirp9 compared with Cl13; type: binding; settings: effect of the two amino acid differences between Chirp9 and Cl13
Description: Evaluation of the recognition capability of scFvs for the toxins of C. hirsutipalpus. Surface plasmon resonance (SPR) evaluations of the recognition capability of scFvs for the toxins of C. hirsutipalpus. The toxins from C. hirsutipalpus were used to evaluate the recognition capacity of antibody fragments previously generated against Mexican scorpion toxins in a biosensor that detects molecular interactions in real time (Biacore X100, Uppsala, Sweden). The toxins Chirp7 and Chirp9 were covalently immobilized onto the surface of CM5 Chips using the amino coupling kit, achieving binding levels of 200 RUs (1 RU corresponds to a change in surface concentration of approximately one pg of bound mass per mm^2). Each pure toxin was solubilized in 10 mM 2-(N-morpholino) ethanesulfonic acid (pH 6) and bound to cell 2. Cell 1 in the sensor (without bound toxin) was used as a control. The scFvs LR, 10FG2, 11F, HV, and RAS 27 [21] were evaluated for their ability to recognize each toxin.

B1: Chirp7 (peptide)
chain: KEGYLVNHSTGCKYECFKLGDNDYCLRECRQQYGKGAGGYCYAFGCWCTHLYEQAVVWPLPKKTCN-NH2
modifications: disulfide (positions not given here); also: four disulfide bridges, pairing not given here
B1 was tested, and the “effect on activation curve” value [1] was “leftward shift in the activation curves”, the “effect on peak current” value [1] was “reduced the peak current” and the “A: fraction of channels bound to the toxin” value [1] was 0.34 ± 0.04. The “I/Imax (residual peak current)” value [1] was 0.88 ± 0.03, the “slope of inactivation after toxin” value [1] was 7.2 ± 0.4 and the “V0.5 of inactivation after toxin” value [1] was -58 ± 0.4 mV. For the same molecule, the “slope of activation after toxin” value [1] was 9.4 ± 1.9, the “V0.5 of activation after toxin” value [1] was -52.5 ± 3.4 mV and the “I/Imax (residual peak current)” value [2] was 1 ± 0.02. For the same molecule, the “slope of activation after toxin” value [2] was 5.9 ± 0.3, the “V0.5 of activation after toxin” value [2] was -22 ± 0.4 mV and the “slope of inactivation after toxin” value [2] was 6.2 ± 0.2. The “V0.5 of inactivation after toxin” value [2] was -56.9 ± 0.2 mV.

B2: Chirp9 (peptide)
chain: KEGYIVDYHTGCKYTCAKLGDNDYCVRECRLRYYQSAHGYCYAFACWCTHLYEAAVVWPLPNKRCK-NH2
modifications: disulfide (positions not given here); also: four disulfide bridges, pairing not given here
In the case of B2, the “antibody recognition of Chirp9 versus Cl13” value [3] is reported as “significantly reduce antibody recognition”, the “effect on activation curve” value [1] is reported as “leftward shift in the activation curves” and the “effect on peak current” value [1] is reported as “reduced the peak current”. The “A: fraction of channels bound to the toxin” value [1] was 1 ± 0.1, the “I/Imax (residual peak current)” value [1] was 0.29 ± 0.03 and the “effect on inactivation kinetic” value ([1]; residual current at potentials greater than −30 mV) was “slows down the inactivation kinetic by promoting a residual current”. For the same molecule, the “slope of inactivation after toxin” value [1] was 6.9 ± 0.4, the “V0.5 of inactivation after toxin” value [1] was -67.1 ± 0.5 mV and the “slope of activation after toxin” value [1] was 15.5 ± 0.9. The “V0.5 of activation after toxin” value [1] was -40.9 ± 0.2 mV, the effect on inactivation [2] was “shifted inactivation to more negative potential” and the “I/Imax (residual peak current)” value [2] was 0.85 ± 0.07. The “slope of activation after toxin” value [2] was 10.8 ± 0.4, the “V0.5 of activation after toxin” value [2] was -26.8 ± 0.5 mV and the “slope of inactivation after toxin” value [2] was 7.6 ± 0.4. The “V0.5 of inactivation after toxin” value [2] was -61.8 ± 0.4 mV.
